US20140287989A1 (CENTRE NATIONAL DE LA RECHERCHE SCIENTIFIQUE, published 2014)
Like-named read-outs stand apart in the source and are kept apart here. Square brackets hold non-standard residues; d marks the D form. Cha = N[C@@H](CC1CCCCC1)C(=O)O

How the values were obtained:
[1] = biological target: T1, E. coli β clamp (β subunit of DNA polymerase III, dnaN gene product) (E. coli, UniProt P0A988 1-366); experiment: SPR competition; ΔG = -RT ln Ki
T1 construct: Homodimeric ring; N-tagged protein expressed in BL21 E. coli and purified on Ni-NTA and MonoQ; also called β ring; β protein; not shown: N-terminal tag from the pET15b plasmid

[2] = biological target: T1, E. coli β clamp (β subunit of DNA …); experiment: SPR competition: peptide with β ring injected on immobilized P1
[3] = biological target: T1, E. coli β clamp (β subunit of DNA …); experiment: as above; remark: listed apart in the source
[4] = biological target: T1, E. coli β clamp (β subunit of DNA …); experiment: as above; remark: listed apart in the source

T1 sequence (P0A988 whole entry): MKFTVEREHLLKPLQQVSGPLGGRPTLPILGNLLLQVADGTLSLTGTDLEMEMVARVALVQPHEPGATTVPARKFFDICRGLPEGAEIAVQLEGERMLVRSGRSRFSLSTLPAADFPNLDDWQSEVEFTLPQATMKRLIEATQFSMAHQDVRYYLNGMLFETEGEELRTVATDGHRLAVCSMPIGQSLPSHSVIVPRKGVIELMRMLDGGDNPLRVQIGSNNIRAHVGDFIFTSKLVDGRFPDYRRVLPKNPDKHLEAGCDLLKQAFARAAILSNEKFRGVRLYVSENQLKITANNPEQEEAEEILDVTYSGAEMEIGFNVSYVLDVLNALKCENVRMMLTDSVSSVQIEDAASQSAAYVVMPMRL

B1: P7, Ac-Gln-Cha-Asp-Leu-Phe-OH (peptide)
peptide: Ac-Q[Cha]DLF-OH
SMILES: CC(=O)N[C@@H](CCC(N)=O)C(=O)N[C@@H](CC1CCCCC1)C(=O)N[C@@H](CC(=O)O)C(=O)N[C@@H](CC(C)C)C(=O)N[C@@H](Cc1ccccc1)C(=O)O
notes: X stands for the non-natural residue; also called Ac Q ChaDLF; AcQChaDLF
ΔG [1]: -9.42 kcal/mol
IC50 [2]: 170 nM
IC50 [3]: 170 nM
IC50 [4]: 170 nM
